According to the supplement of paper PMC5998384:

How the values were obtained:
[1] = system: HeLa Kyoto; test: solubility change mitosis vs G1/S (difference of NP-40 vs SDS log2 ratios) (log2 ratio difference); higher = more soluble in mitosis
[2] = system: HeLa Kyoto; test: melting temperature (median over replicates), in situ; higher = more thermally stable
[3] = system: HeLa Kyoto; test: thermal stability score vs G1/S (z-score of summed log2 fold changes over temperatures); higher = more thermally stable than in G1/S
[4] = system: HeLa Kyoto; test: solubility in G1/S (NP-40 vs SDS abundance) (log2 ratio); higher = more soluble; conditions: cell cycle stage: G1/S
[5] = cell cycle stage: early G1 (4.5 h after nocodazole release)
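For melting temperature (median over replicates), in situ in this document: HeLa Kyoto cells synchronized by double thymidine or nocodazole block, proteins quantified by TMT10plex mass spectrometry, three independent biological replicates.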
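For solubility change mitosis vs G1/S (difference of NP-40 vs SDS log2 ratios) in this document: synchronized HeLa Kyoto cells (double thymidine block for G1/S, nocodazole release for mitosis), protein amounts in NP-40 versus SDS lysates quantified by mass spectrometry, three biological replicates.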
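For solubility in G1/S (NP-40 vs SDS abundance) in this document: HeLa Kyoto cells arrested at G1/S by double thymidine block, proteins quantified by TMT10plex mass spectrometry in mild NP-40 versus SDS extracts, three biological replicates.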
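For thermal stability score vs G1/S (z-score of summed log2 fold changes over temperatures) in this document: synchronized HeLa Kyoto cells, proteins quantified by TMT10plex mass spectrometry, three biological replicates, mitosis taken 0.5 h after nocodazole release, G1/S directly after double thymidine block.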

Substance	solubility change mitosis (log2) [1]	melting temperature ([2]; cell cycle stage: G1/S)	melting temperature ([2]; cell cycle stage: mitosis)	thermal stability score [3, 5]	thermal stability score ([3]; cell cycle stage: mitosis)	solubility in G1/S (log2) [4]
MAWRGWAQRGWGCGQAWGASVGGRSCEELTAVLTPPQLLGRRFNFFIQQKCGFRKAPRKVEPRRSDPGTSGEAYKRSALIPPVEETVFYPSPYPIRSLIKPLFFTVGFTGCAFGSAAIWQYESLKSRVQSYFDGIKADWLDSIRPQKEGDFRKEINKWWNNLSDGQRTVTGIIAANVLVFCLWRVPSLQRTMIRYFTSNPASKVLCSPMLLSTFSHFSLFHMAANMYVLWSFSSSIVNILGQEQFMAVYLSAGVISNFVSYVGKVATGRYGPSLGASGAIMTVLAAVCTKIPEGRLAIIFLPMFTFTAGNALKAIIAMDTAGMILGWKFFDHAAHLGGALFGIWYVTYGHELIWKNREPLVKIWHEIRTNGPKKGGGSK [PARL]	-0.267	54.9 °C	55.8 °C	-0.187	-2.36	-0.0323
MAQVLRGTVTDFPGFDERADAETLRKAMKGLGTDEESILTLLTSRSNAQRQEISAAFKTLFGRDLLDDLKSELTGKFEKLIVALMKPSRLYDAYELKHALKGAGTNEKVLTEIIASRTPEELRAIKQVYEEEYGSSLEDDVVGDTSGYYQRMLVVLLQANRDPDAGIDEAQVEQDAQALFQAGELKWGTDEEKFITIFGTRSVSHLRKVFDKYMTISGFQIEETIDRETSGNLEQLLLAVVKSIRSIPAYLAETLYYAMKGAGTDDHTLIRVMVSRSEIDLFNIRKEFRKNFATSLYSMIKGDTSGDYKKALLLLCGEDD [ANXA5]	0.0486	49.4 °C	49.4 °C	5.64	5.5	0.363
MAGPGPGAVLESPRQLLGRVRFLAEAARSLRAGRPLPAALAFVPREVLYKLYKDPAGPSRVLLPVWEAEGLGLRVGAAGPAPGTGSGPLRAARDSIELRRGACVRTTGEELCNGHGLWVKLTKEQLAEHLGDCGLQEGWLLVCRPAEGGARLVPIDTPNHLQRQQQLFGVDYRPVLRWEQVVDLTYSHRLGSRPQPAEAYAEAVQRLLYVPPTWTYECDEDLIHFLYDHLGKEDENLGSVKQYVESIDVSSYTEEFNVSCLTDSNADTYWESDGSQCQHWVRLTMKKGTIVKKLLLTVDTTDDNFMPKRVVVYGGEGDNLKKLSDVSIDETLIGDVCVLEDMTVHLPIIEIRIVECRDDGIDVRLRGVKIKSSRQRELGLNADLFQPTSLVRYPRLEGTDPEVLYRRAVLLQRFIKILDSVLHHLVPAWDHTLGTFSEIKQVKQFLLLSRQRPGLVAQCLRDSESSKPSFMPRLYINRRLAMEHRACPSRDPACKNAVFTQVYEGLKPSDKYEKPLDYRWPMRYDQWWECKFIAEGIIDQGGGFRDSLADMSEELCPSSADTPVPLPFFVRTANQGNGTGEARDMYVPNPSCRDFAKYEWIGQLMGAALRGKEFLVLALPGFVWKQLSGEEVSWSKDFPAVDSVLVKLLEVMEGMDKETFEFKFGKELTFTTVLSDQQVVELIPGGAGIVVGYGDRSRFIQLVQKARLEESKEQVAAMQAGLLKVVPQAVLDLLTWQELEKKVCGDPEVTVDALRKLTRFEDFEPSDSRVQYFWEALNNFTNEDRSRFLRFVTGRSRLPARIYIYPDKLGYETTDALPESSTCSSTLFLPHYASAKVCEEKLRYAAYNCVAIDTDMSPWEE [HECTD3]	-0.123	51.8 °C	51 °C	0.000139	-0.669	-0.0837
ATRX	0.492	49.2 °C	51.4 °C	-0.452	0.516	-1.33
MGRVVAELVSSLLGLWLLLCSCGCPEGAELRAPPDKIAIIGAGIGGTSAAYYLRQKFGKDVKIDLFEREEVGGRLATMMVQGQEYEAGGSVIHPLNLHMKRFVKDLGLSAVQASGGLLGIYNGETLVFEESNWFIINVIKLVWRYGFQSLRMHMWVEDVLDKFMRIYRYQSHDYAFSSVEKLLHALGGDDFLGMLNRTLLETLQKAGFSEKFLNEMIAPVMRVNYGQSTDINAFVGAVSLSCSDSGLWAVEGGNKLVCSGLLQASKSNLISGSVMYIEEKTKTKYTGNPTKMYEVVYQIGTETRSDFYDIVLVATPLNRKMSNITFLNFDPPIEEFHQYYQHIVTTLVKGELNTSIFSSRPIDKFGLNTVLTTDNSDLFINSIGIVPSVREKEDPEPSTDGTYVWKIFSQETLTKAQILKLFLSYDYAVKKPWLAYPHYKPPEKCPSIILHDRLYYLNGIECAASAMEMSAIAAHNAALLAYHRWNGHTDMIDQDGLYEKLKTEL [PCYOX1]	-0.225	56.6 °C	57.1 °C	1.46	0.959	0.102
MKLPARVFFTLGSRLPCGLAPRRFFSYGTKILYQNTEALQSKFFSPLQKAMLPPNSFQGKVAFITGGGTGLGKGMTTLLSSLGAQCVIASRKMDVLKATAEQISSQTGNKVHAIQCDVRDPDMVQNTVSELIKVAGHPNIVINNAAGNFISPTERLSPNAWKTITDIVLNGTAFVTLEIGKQLIKAQKGAAFLSITTIYAETGSGFVVPSASAKAGVEAMSKSLAAEWGKYGMRFNVIQPGPIKTKGAFSRLDPTGTFEKEMIGRIPCGRLGTVEELANLAAFLCSDYASWINGAVIKFDGGEEVLISGEFNDLRKVTKEQWDTIEELIRKTKGS [DECR1]	0.263	55.7 °C	55.5 °C	0.81	-1.85	0.0868
APOB	0.0239	57.6 °C	55.5 °C	-3.15	-0.312	-0.404
MAGAGGGNDIQWCFSQVKGAVDDDVAEADIISTVEFNHSGELLATGDKGGRVVIFQQEQENKIQSHSRGEYNVYSTFQSHEPEFDYLKSLEIEEKINKIRWLPQKNAAQFLLSTNDKTIKLWKISERDKRPEGYNLKEEDGRYRDPTTVTTLRVPVFRPMDLMVEASPRRIFANAHTYHINSISINSDYETYLSADDLRINLWHLEITDRSFNIVDIKPANMEELTEVITAAEFHPNSCNTFVYSSSKGTIRLCDMRASALCDRHSKLFEEPEDPSNRSFFSEIISSISDVKFSHSGRYMMTRDYLSVKIWDLNMENRPVETYQVHEYLRSKLCSLYENDCIFDKFECCWNGSDSVVMTGSYNNFFRMFDRNTKRDITLEASRENNKPRTVLKPRKVCASGKRKKDEISVDSLDFNKKILHTAWHPKENIIAVATTNNLYIFQDKVN [PPP2R2A]	-0.194	54.7 °C	54.2 °C	-0.543	-3.42	-0.0929
MEDYLQGCRAALQESRPLHVVLGNEACDLDSTVSALALAFYLAKTTEAEEVFVPVLNIKRSELPLRGDIVFFLQKVHIPESILIFRDEIDLHALYQAGQLTLILVDHHILSKSDTALEEAVAEVLDHRPIEPKHCPPCHVSVELVGSCATLVTERILQGAPEILDRQTAALLHGTIILDCVNMDLKIGKATPKDSKYVEKLEALFPDLPKRNDIFDSLQKAKFDVSGLTTEQMLRKDQKTIYRQGVKVAISAIYMDLEAFLQRSNLLADLHAFCQAHSYDVLVAMTIFFNTHNEPVRQLAIFCPHVALQTTICEVLERSHSPPLKLTPASSTHPNLHAYLQGNTQVSRKKLLPLLQEALSAYFDSMKIPSGQPETADVSREQVDKELDRASNSLISGLSQDEEDPPLPPTPMNSLVDECPLDQGLPKLSAEAVFEKCSQISLSQSTTASLSKK [PRUNE]	-0.0758	50.3 °C	49.6 °C	0.764	0.775	0.182
MUC16	-0.177	53.5 °C	53.5 °C	-2.6	-5.24	-0.172
MNSAEQTVTWLITLGVLESPKKTISDPEGFLQASLKDGVVLCRLLERLLPGTIEKVYPEPRSESECLSNIREFLRGCGASLRLELLFPPSQPPQHLVTTILLSASTFDANDLYQGQNFNKVLSSLVTLNKVTADIGLGSDSVCARPSSHRIKSFDSLGSQSLHTRTSKLFQGQYRSLDMTDNSNNQLVVRAKFNFQQTNEDELSFSKGDVIHVTRVEEGGWWEGTLNGRTGWFPSNYVREVKASEKPVSPKSGTLKSPPKGFDTTAINKSYYNVVLQNILETENEYSKELQTVLSTYLRPLQTSEKLSSANISYLMGNLEEICSFQQMLVQSLEECTKLPEAQQRVGGCFLNLMPQMKTLYLTYCANHPSAVNVLTEHSEELGEFMETKGASSPGILVLTTGLSKPFMRLDKYPTLLKELERHMEDYHTDRQDIQKSMAAFKNLSAQCQEVRKRKELELQILTEAIRNWEGDDIKTLGNVTYMSQVLIQCAGSEEKNERYLLLFPNVLLMLSASPRMSGFIYQGKLPTTGMTITKLEDSENHRNAFEISGSMIERILVSCNNQQDLQEWVEHLQKQTKVTSVGNPTIKPHSVPSHTLPSHPVTPSSKHADSKPAPLTPAYHTLPHPSHHGTPHTTINWGPLEPPKTPKPWSLSCLRPAPPLRPSAALCYKEDLSKSPKTMKKLLPKRKPERKPSDEEFASRKSTAALEEDAQILKVIEAYCTSAKTRQTLNSTWQGTDLMHNHVLADDDQPSLDSLGRRSSLSRLEPSDLSEDSDYDSIWTAHSYRMGSTSRKSCCSYISHQN [ARHGEF7]	-0.0942	48.5 °C	49.6 °C	0.815	1.6	0.105
MSGGKYVDSEGHLYTVPIREQGNIYKPNNKAMADELSEKQVYDAHTKEIDLVNRDPKHLNDDVVKIDFEDVIAEPEGTHSFDGIWKASFTTFTVTKYWFYRLLSALFGIPMALIWGIYFAILSFLHIWAVVPCIKSFLIEIQCISRVYSIYVHTVCDPLFEAVGKIFSNVRINLQKEI [CAV1]	-0.0544	57.3 °C	54.6 °C	-2.45	-3.05	-0.297
MASSGEDISNDDDDMHPAAAGMADGVHLLGFSDEILLHILSHVPSTDLILNVRRTCRKLAALCLDKSLIHTVLLQKDYQASEDKVRQLVKEIGREIQQLSMAGCYWLPGSTVEHVARCRSLVKVNLSGCHLTSLRLSKMLSALQHLRSLAIDVSPGFDASQLSSECKATLSRVRELKQTLFTPSYGVVPCCTSLEKLLLYFEILDRTREGAILSGQLMVGQSNVPHYQNLRVFYARLAPGYINQEVVRLYLAVLSDRTPQNLHAFLISVPGSFAESGATKNLLDSMARNVVLDALQLPKSWLNGSSLLQHMKFNNPFYFSFSRCTLSGGHLIQQVINGGKDLRSLASLNLSGCVHCLSPDSLLRKAEDDIDSSILETLVASCCNLRHLNLSAAHHHSSEGLGRHLCQLLARLRHLRSLSLPVCSVADSAPRADRAPAQPAMHAVPRGFGKKVRVGVQSCPSPFSGQACPQPSSVFWSLLKNLPFLEHLELIGSNFSSAMPRNEPAIRNSLPPCSRAQSVGDSEVAAIGQLAFLRHLTLAQLPSVLTGSGLVNIGLQCQQLRSLSLANLGMMGKVVYMPALSDMLKHCKRLRDLRLEQPYFSANAQFFQALSQCPSLQRLCLVSRSGTLQPDAVLAFMARCLQVVMCHLFTGESLATCKSLQQSLLRSFQAERPALNVVIFPLLHEGLTDVIRDVPLVHLDEITLFKSRVAEEPPNLWW [FBXL18]	-0.164	53.4 °C	53 °C	-1.04	-1.17	0.1
MSGGSADYNREHGGPEGMDPDGVIESNWNEIVDNFDDMNLKESLLRGIYAYGFEKPSAIQQRAIIPCIKGYDVIAQAQSGTGKTATFAISILQQLEIEFKETQALVLAPTRELAQQIQKVILALGDYMGATCHACIGGTNVRNEMQKLQAEAPHIVVGTPGRVFDMLNRRYLSPKWIKMFVLDEADEMLSRGFKDQIYEIFQKLNTSIQVVLLSATMPTDVLEVTKKFMRDPIRILVKKEELTLEGIKQFYINVEREEWKLDTLCDLYETLTITQAVIFLNTRRKVDWLTEKMHARDFTVSALHGDMDQKERDVIMREFRSGSSRVLITTDLLARGIDVQQVSLVINYDLPTNRENYIHRIGRGGRFGRKGVAINFVTEEDKRILRDIETFYNTTVEEMPMNVADLI [EIF4A2]	-0.2	52.1 °C	51.5 °C	-0.202	-1.09	0.106
